From publication doi:10.1101/430835 (bioRxiv, 2019)
“And” between values parts separate entries of the source, which are not always exact repeats. Identical values can stand only once.

Target: the molecule itself
Assay: native gel or EMSA

Protein	stoichiometry N
Uncoupling protein 2 (UCP2) (natural protein, human, UniProt P55851 1-309, looked up) MVGFKATDVPPTATVKFLGAGTAACIADLITFPLDTAKVRLQIQGESQGPVRATASAQYRGVMGTILTMVRTEGPRSLYNGLVAGLQRQMSFASVRIGLYDSVKQFYTKGSEHASIGSRLLAGSTTGALAVAVAQPTDVVKVRFQAQARAGGGRRYQSTVNAYKTIAREEGFRGLWKGTSPNVARNAIVNCAELVTYDLIKDALLKANLMTDDLPCHFTSAFGAGFCTTVIASPVDVVKTRYMNSALGQYSSAGHCALTMLQKEGPRAFYKGFMPSFLRLGSWNVVMFVTYEQLKRALMAACTSREAPF	2 and 4
bovine ADP/ATP carrier protein isoform 1 (AAC1) (natural protein) SDQALSFLKDFLAGGVAAAISKTAVAPIERVKLLLQVQHASKQISAEKQYKGIIDCVVRIPKEQGFLSFWRGNLANVIRYFPTQALNFAFKDKYKQIFLGGVDRHKQFWRYFAGNLASGGAAGATSLCFVYPLDFARTRLAADVGKGAAQREFTGLGNCITKIFKSDGLRGLYQGFNVSVQGIIIYRAAYFGVYDTAKGMLPDPKNVHIIVSWMIAQTVTAVAGLVSYPFDTVRRRMMMQSGRKGADIMYTGTVDCWRKIAKDEGPKAFFKGAWSNVLRGMGGAFVLVLYDEIKKFV	2
